From PMC5487423 (2017)
Numbering of substitutions follows the chain as printed.

Legend:
Experiment in all cases: BLI
CCL27_HUMAN = target: CCL27_HUMAN
CCL15_HUMAN = target: CCL15_HUMAN
CCL23_HUMAN = target: CCL23_HUMAN
CCL11 = CCL11 (human, UniProt P51671 24-97)
CCL3_MOUSE = target: T1, CCL3_MOUSE (Mus musculus)
T1 chain: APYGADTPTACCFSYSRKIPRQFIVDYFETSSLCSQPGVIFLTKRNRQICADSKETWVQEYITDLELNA

CCL4_HUMAN = target: T2, CCL4_HUMAN (Homo sapiens)
T2 chain: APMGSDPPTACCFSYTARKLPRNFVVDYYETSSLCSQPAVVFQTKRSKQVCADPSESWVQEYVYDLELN

CCL11_MOUSE = target: T3, CCL11_MOUSE (Mus musculus)
T3 chain: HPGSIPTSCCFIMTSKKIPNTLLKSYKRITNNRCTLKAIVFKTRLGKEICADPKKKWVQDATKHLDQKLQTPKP

CCL22_MOUSE = target: T4, CCL22_MOUSE (Mus musculus)
T4 chain: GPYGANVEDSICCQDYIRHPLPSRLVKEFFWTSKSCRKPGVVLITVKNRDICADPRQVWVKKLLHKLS

CCL4_MOUSE = target: T5, CCL4_MOUSE (Mus musculus)
T5 chain: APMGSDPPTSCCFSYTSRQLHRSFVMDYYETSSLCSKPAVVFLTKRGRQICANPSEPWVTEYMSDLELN

CCL18_HUMAN = target: T6, CCL18_HUMAN (Homo sapiens)
T6 chain: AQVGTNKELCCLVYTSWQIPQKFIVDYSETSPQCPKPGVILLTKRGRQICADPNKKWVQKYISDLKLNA

CCL2 = CCL2 (human, UniProt P13500 24-99)
CCL16_HUMAN = target: T7, CCL16_HUMAN (Homo sapiens)
T7 chain: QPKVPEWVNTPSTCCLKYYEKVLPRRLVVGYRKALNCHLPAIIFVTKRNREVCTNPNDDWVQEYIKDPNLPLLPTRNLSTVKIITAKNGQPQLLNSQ

CCL8 = target: T8, CCL8 (human, UniProt P80075 24-99)
T8 chain: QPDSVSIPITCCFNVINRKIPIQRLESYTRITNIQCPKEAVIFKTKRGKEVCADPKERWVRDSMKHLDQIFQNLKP

CCL5 = target: T9, CCL5 (human, UniProt P13501 24-91)
T9 chain: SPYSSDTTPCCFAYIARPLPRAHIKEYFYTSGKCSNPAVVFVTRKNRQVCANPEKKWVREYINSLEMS

CCL2_MOUSE = CCL2_MOUSE (Mus musculus)
CCL7 = CCL7 (human, UniProt P80098 24-99)
CCL24_HUMAN = target: T10, CCL24_HUMAN (Homo sapiens)
T10 chain: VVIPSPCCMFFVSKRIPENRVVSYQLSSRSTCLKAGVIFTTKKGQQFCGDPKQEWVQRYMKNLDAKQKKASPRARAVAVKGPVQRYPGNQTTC

CCL13_HUMAN = CCL13_HUMAN (Homo sapiens)
CCL4L1_HUMAN = target: T11, CCL4L1_HUMAN (Homo sapiens)
T11 chain: T2 chain with S47G

CCL3 = target: T12, CCL3 (human, UniProt P10147 24-92)
T12 chain: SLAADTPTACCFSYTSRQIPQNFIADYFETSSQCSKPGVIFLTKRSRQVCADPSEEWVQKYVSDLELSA

CCL22_HUMAN = target: T13, CCL22_HUMAN (Homo sapiens)
T13 chain: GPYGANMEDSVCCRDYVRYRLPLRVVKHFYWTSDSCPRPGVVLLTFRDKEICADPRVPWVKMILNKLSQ

CCL5_MOUSE = CCL5_MOUSE (Mus musculus)
CCL17_HUMAN = target: T14, CCL17_HUMAN (Homo sapiens)
T14 chain: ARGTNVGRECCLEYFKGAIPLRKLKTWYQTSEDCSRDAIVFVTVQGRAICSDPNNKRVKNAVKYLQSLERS

Sequence of CCL2_MOUSE (Mus musculus) (chain, as listed by the source): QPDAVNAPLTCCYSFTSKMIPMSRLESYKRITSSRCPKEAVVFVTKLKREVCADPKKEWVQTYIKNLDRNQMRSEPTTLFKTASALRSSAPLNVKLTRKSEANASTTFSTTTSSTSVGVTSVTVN
Sequence of CCL11 (P51671 24-97): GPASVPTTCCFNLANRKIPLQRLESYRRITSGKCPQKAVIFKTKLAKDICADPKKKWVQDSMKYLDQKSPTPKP
Sequence of CCL13_HUMAN (Homo sapiens) (chain, as listed by the source): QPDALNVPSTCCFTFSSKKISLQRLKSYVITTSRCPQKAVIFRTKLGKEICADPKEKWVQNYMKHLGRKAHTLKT
Sequence of CCL2 (P13500 24-99): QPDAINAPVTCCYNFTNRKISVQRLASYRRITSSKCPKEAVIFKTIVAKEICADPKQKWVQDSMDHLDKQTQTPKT
Sequence of CCL7 (P80098 24-99): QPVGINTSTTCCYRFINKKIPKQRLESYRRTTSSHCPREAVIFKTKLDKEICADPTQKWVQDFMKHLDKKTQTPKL
Sequence of CCL5_MOUSE (Mus musculus) (P30882 24-91): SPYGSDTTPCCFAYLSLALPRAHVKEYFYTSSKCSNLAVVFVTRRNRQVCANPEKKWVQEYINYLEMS

B1: P991_AMBCA, purified, C-terminal StrepII-8xHis tag (natural protein)
chain: ETGENGEGTTQPDYDNSTDYYNYEDFKCTCPAPHLNNTNGTVMKPIGCYYTCNVTRCTAPDTYPCYNLTEHQAKNLTTSPTTLCAVGNCDHGICVPNGTKELCFKAPNLEE
Question: With B1 as the binder, how does the Kd (CCL27_HUMAN) read?
Answer: 39 nM

Question: And the Kd (CCL15_HUMAN)?
Answer: 160 nM

Question: What about the Kd (CCL23_HUMAN) of the same binder?
Answer: 5.6 nM

Question: And the Kd (CCL11)?
Answer: 3.43 nM

Question: What about the Kd (CCL3_MOUSE) of the same binder?
Answer: 2.48 nM

Question: And the Kd (CCL4_HUMAN)?
Answer: 5.82 nM

Question: And the Kd (CCL11_MOUSE)?
Answer: 1.11 nM

Question: What about the Kd (CCL22_MOUSE) of the same binder?
Answer: 8.59 nM

Question: What about the Kd (CCL4_MOUSE) of the same binder?
Answer: 0.401 nM

Question: And the Kd (CCL18_HUMAN)?
Answer: 0.209 nM

Question: And the Kd (CCL2)?
Answer: 12.2 nM

Question: What about the Kd (CCL16_HUMAN) of the same binder?
Answer: 1.28 nM

Question: What about the Kd (CCL8) of the same binder?
Answer: 8.79 nM

Question: What about the Kd (CCL5) of the same binder?
Answer: 1.47 nM

Question: What about the Kd (CCL2_MOUSE) of the same binder?
Answer: 24.3 nM

Question: And the Kd (CCL7)?
Answer: 0.514 nM

Question: And the Kd (CCL24_HUMAN)?
Answer: 6.54 nM

Question: What about the Kd (CCL13_HUMAN) of the same binder?
Answer: 0.419 nM

Question: What about the Kd (CCL4L1_HUMAN) of the same binder?
Answer: 0.827 nM

Question: What about the Kd (CCL3) of the same binder?
Answer: 1.08 nM

Question: What about the Kd (CCL22_HUMAN) of the same binder?
Answer: 3.97 nM

Question: What about the Kd (CCL5_MOUSE) of the same binder?
Answer: 2.12 nM

Question: And the Kd (CCL17_HUMAN)?
Answer: 7.66 nM
